# Test results published in paper PMC10844976 (The Journal of Biological Chemistry, 2024).
# “And” between values parts separate entries of the source, which are not always exact repeats. Equal entries are not always repeated.
# Key:
# [1] = target: M-related protein Mrp216 (mrp type 216), from GAS strain NS88.2 (Streptococcus pyogenes); assay: mass photometry
# [2] = target: M-related protein (Mrp), mrp type 115, from GAS strain NS730 (Streptococcus pyogenes); assay: SPR
# [3] = target: M-related protein Mrp216 (mrp type 216), from GAS strain NS88.2 (Streptococcus pyogenes); assay: SPR
# [4] = target: M-related protein (Mrp), mrp type 298, from GAS strain 939–03 (Streptococcus pyogenes); assay: SPR
# [5] = target: M-related protein (Mrp), mrp type 174, from GAS strain NS452 (Streptococcus pyogenes); assay: SPR
# [6] = target: M-related protein Mrp71 (mrp type 71), from GAS strain NS192 (Streptococcus pyogenes); assay: SPR
# [7] = target: M-related protein (Mrp), mrp type 8, from GAS strain NS931 (Streptococcus pyogenes); assay: SPR
# [8] = target: M-related protein (Mrp), mrp type 52, from GAS strain PRS66 (Streptococcus pyogenes); assay: SPR
# [9] = target: M-related protein Mrp193 (mrp type 193), from GAS strain NS80 (Streptococcus pyogenes); assay: SPR
# [10] = target: M-related protein Mrp105 (mrp type 105), from GAS strain NS210 (Streptococcus pyogenes); assay: SPR
# [11] = target: M54 protein (Streptococcus pyogenes); assay: mass photometry
# [12] = target: M1 protein (Streptococcus pyogenes) (UniProt Q99XV0); assay: mass photometry
# [13] = target: the molecule itself; assay: mass photometry
Molecule,stoichiometry N [1],Kd [2] [nM],Kd [3] [nM],Kd [4] [nM],Kd [5] [nM],Kd [6] [nM],Kd [7] [nM],Kd [8] [nM],Kd [9] [nM],Kd [10] [nM],stoichiometry N [11],stoichiometry N (IgG per Mrp216 dimer) [1],stoichiometry N (IgG per M1 dimer) [12],stoichiometry N [13]
"M-related protein Mrp216 (mrp type 216), from GAS strain NS88.2 (natural protein)",2,–,–,–,–,–,–,–,–,–,–,–,–,–
human IgG1 (antibody),–,13.4,5.4,16,9.71,11.1,15.3,3,–,–,–,–,–,–
human IgG4 (antibody),–,7.4,4.3,13.4,11.9,15.2,11.9,9.02,6.5,10.6,–,–,–,–
human IgG2 (antibody),–,13.5,8.12,19.4,11,15.4,21.8,6.4,8.17,7.03,–,–,–,–
human IgG3 (antibody),–,244,302,226,152,220,256,145,201,208,–,–,–,–
M54 protein (natural protein),–,–,–,–,–,–,–,–,–,–,2 and 4,–,–,–
human IgG (pooled mixture of all IgG subclasses found in serum) (antibody),–,10.2,–,9.3,8.8,11.1,–,–,6.4,–,–,1,1,–
M1 protein (natural protein) NGDGNPREVIEDLAANNPAIQNIRLRYENKDLKARLENAMEVAGRDFKRAEELEKAKQALEDQRKDLETKLKELQQDYDLAKESTSWDRQRLEKELEEKKEALELAIDQASRDYHRATALEKELEEKKKALELAIDQASQDYNRANVLEKELETITREQEINRNLLGNAKLELDQLSSEKEQLTIEKAKLEEEKQISDASRQSLRRDLDASREAKKQVEKDLANLTAELDKVKEDKQISDASRQGLRRDLDASREAKKQVEKDLANLTAELDKVKEEKQISDASRQGLRRDLDASREAKKQVEKALEEANSKLAALEKLNKELEESKKLTEKEKAELQAKLEAEAKALKEQLAKQAEELAKLRAGKASDSQTPDTKPGNKAVPGKGQAPQAGTKPNQNKAPMKETKRQLPST,–,–,–,–,–,–,–,–,–,–,–,–,–,2
